B1: Leader protein of Theiler's virus: Leader protein of Theiler's virus, SEQ ID NO: 1, enhancer protein (protein)
chain: MACKHGYPLMCPLCTALDKTSDGLFTLLFDNEWYPTDLLTVDLEDEVFYPDDPHMEWTDLPLIQDIEMEPQ
modifications: Cardiovirus Theiler's-like cardiovirus
B2: C1-Inhibitor: secreted protease inhibitor of the serpin superfamily, expressed as C1-Inh-myc-flag fusion (protein, UniProt P05155 23-500, looked up)
Plasma protease C1 inhibitor: NPNATSSSSQDPESLQDRGEGKVATTVISKMLFVEPILEVSSLPTTNSTTNSATKITANTTDEPTTQPTTEPTTQPTIQPTQPTTQLPTDSPTQPTTGSFCPGPVTLCSDLESHSTEAVLGDALVDFSLKLYHAFSAMKKVETNMAFSPFSIASLLTQVLLGAGENTKTNLESILSYPKDFTCVHQALKGFTTKGVTSVSQIFHSPDLAIRDTFVNASRTLYSSSPRVLSNNSDANLELINTWVAKNTNNKISRLLDSLPSDTRLVLLNAIYLSAKWKTTFDPKKTRMEPFHFKNSVIKVPMMNSKKYPVAHFIDQTLKAKVGQLQLSHNLSLVILVPQNLKHRLEDMEQALSPSVFKAIMEKLEMSKFQPTLLTLPRIKVTTSQDMLSIMEKLEFFDFSYDLNLCGLTEDPDLQVSAMQHQTVLELTETGVEAAAASAISVARTLLVFEVQQPFLFVLWDQQHKFPVFMGRVYDPRA
modifications: myc-flag tag

Key:
HEK293 cells [1] = format: cell-based, human
DRD1 = target: T1, DRD1 (Homo sapiens, UniProt P21728); experiment: DRD1-Strep functional activity, cAMP-Glo assay; format: cell-based; conditions: HEK293 expressing DRD1-Strep
T1 construct: expressed in transfected cells; host or cells: HEK293
T1 sequence (P21728 with tags, fused parts or gaps): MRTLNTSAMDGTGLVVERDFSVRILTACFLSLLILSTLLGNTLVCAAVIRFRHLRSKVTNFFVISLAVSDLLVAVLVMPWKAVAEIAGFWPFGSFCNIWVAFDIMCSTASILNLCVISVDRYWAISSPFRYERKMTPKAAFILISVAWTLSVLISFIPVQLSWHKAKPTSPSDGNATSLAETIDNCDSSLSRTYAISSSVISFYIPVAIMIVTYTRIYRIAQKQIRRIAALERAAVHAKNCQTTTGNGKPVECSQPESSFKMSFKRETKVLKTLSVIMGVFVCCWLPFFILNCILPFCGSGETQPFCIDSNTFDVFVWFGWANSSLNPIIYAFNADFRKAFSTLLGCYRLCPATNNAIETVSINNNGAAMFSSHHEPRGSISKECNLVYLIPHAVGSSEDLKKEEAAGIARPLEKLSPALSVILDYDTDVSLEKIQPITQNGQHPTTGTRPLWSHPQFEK
Description: In addition to the illustration of a correctly translocated GPCR such as DRD1, activity tests were performed using a DRD1-Strep fusion. The smaller strep-tag ensures that the interaction with the cytosolic located G-protein is intact, and a functional assay can be performed. Upon binding of dopamine, DRD1 releases the heterotrimeric G-protein to its Gα subunit and its Gβγ complex. In the resting state, Ga binds GDP but upon activation exchanges GTP for GDP. The Gα-GTP complex interacts with adenylate cyclase (AC), resulting in activation of AC activity and consequently, increasing cAMP levels. Changes in intracellular cAMP levels can be measured by standard cAMP assays. The academic and industry standard (EG5) was compared to the same target protein in co-expression with the L-protein of ECMV.
DRD1-Strep fusions were expressed in HEK293 cells. […] Protein was expressed for 48 h and DRD1 activity was analyzed using the cAMP-Glo™ assay (Promega) according to manufacturer's instructions. After 48 h, cells were washed with sterile PBS pH 7.2 and cells were incubated for 2 h with 20 μl of a 1 mM dopamine substrate solution (+dopamine; ON) or PBS pH 7.2 (−dopamine; OFF) at 37° C. […] Luminescence was measured using a plate reader (BioTek Synergy™ LX) and data were analyzed using standard analysis programs.

Sf9 cells = experiment: DRD1-GFP expression, localization and toxicity in Sf9 cells; conditions: Sf9, 72 h
Description: DRD1-GFP fusions were expressed in Sf9 cells. Sf9 cells were seeded at 0.4×10^6 cells/well in a 6 well plate and incubated for 15 min at RT before transiently transfecting with either EG10 or EG8 using Cellfectin Reagent II (Thermofisher) according to manufactures instruction. DRD1-GFP expression was monitored after 72 h using fluorescence microscopy. Images were taken and analyzed by an Echo Revolve microscopy system.

CHO-K1 cells = experiment: DRD1-GFP expression and membrane localization in CHO-K1 cells; conditions: CHO-K1, 48 h
Description: DRD1-GFP fusions proteins were expressed in CHO-K1 cells. CHO-K1 cells were seeded at 0.05×10^6 cells/well in a 24 well plate and incubated at 37° C. and 5% CO2 overnight before transiently transfecting with either EG10 or EG19 using Lipofectamine 3000 (Thermofisher) according to manufactures instructions. DRD1-GFP expression was monitored after 48 h using fluorescence microscopy. Images were taken and analyzed by an Echo Revolve microscopy system.

HEK293 cells [2] = experiment: C1-Inhibitor secretion and purification, total amount produced; format: cell-based, human; conditions: presence vs absence of the enhancer protein (L protein from EMCV, EG11), HEK293, 72 h
Description: (§1) C1-Inh-Myc-Flag fusions were expressed in HEK293 cells. HEK293 cells were seeded at 1.75×10^6/ml cells in 100 ml shaking flask and incubated at 37° C., 5% CO2 and 120 rpm overnight before transiently transfecting with a vector encoding C1-Inh (OriGene; CAT #: RC203767) either alone, or in combination with EG11 by transfection of suspension cells using methods known in the art and/or disclosed herein. Supernatant containing the expressed recombinant C1-Inh protein was harvested after 72 h and supernatant was cleared by centrifugation followed by filtration ([…], nitrocellulose). To purify C1-Inh, Anti-Flag resin (ANTI-FLAG M2 Affinity Gel, Millipore Sigma) was equilibrated with 20 mM Tris pH 7.5, 50 mM NaCl prior to adding to the supernatant. Supernatant was incubated with the resin for 2 h at 4° C. with shaking. Resin was settled and washed with 5 CV 20 mM Tris pH 7.5, 50 mM NaCl and protein was eluted with 4 CV 20 mM Tris pH 7.5, 50 mM NaCl, 0.2 mg/ml 3× Flag Peptide. Purification was analyzed by SDS-PAGE (SurePAGE, Bis-Tris, GenScript) and protein containing fractions were pooled. Protein concentration was analyzed by BCA Assay (ThermoFisher) according to manufactures instructions and normalized C1-Inh was tested for activity using Immunoassay (MicroVue C1-Inhibitor Plus EIA, Quidel) following manufactures instructions.

[3] = Active C1-Inhibitor, MicroVue C1-Inhibitor Plus EIA; format: biochemical; conditions: presence vs absence of the enhancer protein, protein concentration normalized
Description: as §1

Molecule | DRD1-GFP membrane association, enhancer on a separate vector (HEK293 cells [1]) | DRD1-GFP translocation into the outer membrane / inclusion bodies (HEK293 cells [1]) | activating signal, difference between OFF (-dopamine) and ON (+dopamine) luminescence (DRD1; 1 mM dopamine 2 h) | leaky activation, OFF signal compared to non-transfected cells (DRD1; absence of dopamine) | DRD1-GFP translocation and localization (Sf9 cells) | DRD1-GFP translocation and localization (CHO-K1 cells) | increase of total amount of produced C1-Inhibitor (HEK293 cells [2]) | increase of amount of active C1-Inhibitor [3]
Leader protein of ECMV: Leader protein of Encephalomyocarditis virus (EMCV), SEQ ID NO: 2, enhancer protein | ensures correct membrane association | sufficient to ensure a correct membrane incorporation of DRD1-GFP | strong activating signal | greatly reduced | improved expression and localization of the membrane protein | – | – | –
B1 | – | sufficient to ensure a correct membrane incorporation of DRD1-GFP | – | – | – | improved expression and localization of the membrane protein | – | –
B2 | – | – | – | – | – | – | > 30% | > 10%

— patent publication US20230056404A1 (priority 2019, published 2023)
